Measurements published in PMC5725494, “Cell cycle-dependent phosphorylation regulates RECQL4 pathway choice and ubiquitination in DNA double-strand break repair”.

Experiments:
Test in all cases: EMSA; 25 or 50 nM protein, 0.5 nM DNA; 5 mM MnCl2, no ATP; 25 mM HEPES pH 7.4, 5 mM MnCl2, 1 mM DTT, 100 ng/mL BSA, 5% glycerol, no ATP; 10 min at 37 °C; 10% native PAGE
Conditions in all cases: protein: recombinant; tags: 3xFLAG; label: 5'-32P on Mix3-19 (S13); fork: 19 bp duplex with 5' T15 arm (strand 1) and 3' T15 arm (strand 2)
RECQL4 RQ4-2D = molecular target: T1, RECQL4 RQ4-2D (UniProt O94761 1-1208, S89D;S251D)
T1 sequence: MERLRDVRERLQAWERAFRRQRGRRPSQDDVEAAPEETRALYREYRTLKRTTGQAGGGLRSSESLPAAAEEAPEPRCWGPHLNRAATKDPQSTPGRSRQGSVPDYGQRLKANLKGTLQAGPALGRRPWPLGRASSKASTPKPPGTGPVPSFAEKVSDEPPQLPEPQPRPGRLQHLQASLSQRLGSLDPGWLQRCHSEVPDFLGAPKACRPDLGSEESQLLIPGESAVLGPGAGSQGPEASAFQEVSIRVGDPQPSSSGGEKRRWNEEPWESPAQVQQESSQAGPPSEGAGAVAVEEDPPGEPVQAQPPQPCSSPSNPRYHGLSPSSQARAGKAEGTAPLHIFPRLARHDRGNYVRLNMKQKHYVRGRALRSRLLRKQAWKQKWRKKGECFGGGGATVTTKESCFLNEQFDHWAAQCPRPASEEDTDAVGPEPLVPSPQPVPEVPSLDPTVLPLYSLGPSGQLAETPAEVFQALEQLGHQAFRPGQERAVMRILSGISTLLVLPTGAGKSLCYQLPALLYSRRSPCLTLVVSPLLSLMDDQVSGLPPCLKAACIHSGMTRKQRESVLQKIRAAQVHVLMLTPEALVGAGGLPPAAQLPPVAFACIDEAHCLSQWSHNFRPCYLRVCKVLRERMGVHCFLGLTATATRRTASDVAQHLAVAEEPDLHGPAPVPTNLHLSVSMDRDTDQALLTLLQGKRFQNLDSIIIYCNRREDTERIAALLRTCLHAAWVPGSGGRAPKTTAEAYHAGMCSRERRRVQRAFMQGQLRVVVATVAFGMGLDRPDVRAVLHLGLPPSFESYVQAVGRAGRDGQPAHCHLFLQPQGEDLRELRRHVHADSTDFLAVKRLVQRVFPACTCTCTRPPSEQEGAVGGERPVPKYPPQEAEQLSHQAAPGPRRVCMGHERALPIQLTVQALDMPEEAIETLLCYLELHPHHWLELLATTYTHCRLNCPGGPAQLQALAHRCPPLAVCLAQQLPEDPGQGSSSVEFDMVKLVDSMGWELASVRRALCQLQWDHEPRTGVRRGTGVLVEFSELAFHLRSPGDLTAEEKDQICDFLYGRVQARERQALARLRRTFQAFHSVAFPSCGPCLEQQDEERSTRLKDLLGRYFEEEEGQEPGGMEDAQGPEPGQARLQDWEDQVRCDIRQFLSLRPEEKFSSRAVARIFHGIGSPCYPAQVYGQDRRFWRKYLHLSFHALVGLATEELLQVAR

RECQL4 WT (RQ4Wt) = molecular target: T2, RECQL4 WT (RQ4Wt) (UniProt O94761 1-1208)
T2 sequence: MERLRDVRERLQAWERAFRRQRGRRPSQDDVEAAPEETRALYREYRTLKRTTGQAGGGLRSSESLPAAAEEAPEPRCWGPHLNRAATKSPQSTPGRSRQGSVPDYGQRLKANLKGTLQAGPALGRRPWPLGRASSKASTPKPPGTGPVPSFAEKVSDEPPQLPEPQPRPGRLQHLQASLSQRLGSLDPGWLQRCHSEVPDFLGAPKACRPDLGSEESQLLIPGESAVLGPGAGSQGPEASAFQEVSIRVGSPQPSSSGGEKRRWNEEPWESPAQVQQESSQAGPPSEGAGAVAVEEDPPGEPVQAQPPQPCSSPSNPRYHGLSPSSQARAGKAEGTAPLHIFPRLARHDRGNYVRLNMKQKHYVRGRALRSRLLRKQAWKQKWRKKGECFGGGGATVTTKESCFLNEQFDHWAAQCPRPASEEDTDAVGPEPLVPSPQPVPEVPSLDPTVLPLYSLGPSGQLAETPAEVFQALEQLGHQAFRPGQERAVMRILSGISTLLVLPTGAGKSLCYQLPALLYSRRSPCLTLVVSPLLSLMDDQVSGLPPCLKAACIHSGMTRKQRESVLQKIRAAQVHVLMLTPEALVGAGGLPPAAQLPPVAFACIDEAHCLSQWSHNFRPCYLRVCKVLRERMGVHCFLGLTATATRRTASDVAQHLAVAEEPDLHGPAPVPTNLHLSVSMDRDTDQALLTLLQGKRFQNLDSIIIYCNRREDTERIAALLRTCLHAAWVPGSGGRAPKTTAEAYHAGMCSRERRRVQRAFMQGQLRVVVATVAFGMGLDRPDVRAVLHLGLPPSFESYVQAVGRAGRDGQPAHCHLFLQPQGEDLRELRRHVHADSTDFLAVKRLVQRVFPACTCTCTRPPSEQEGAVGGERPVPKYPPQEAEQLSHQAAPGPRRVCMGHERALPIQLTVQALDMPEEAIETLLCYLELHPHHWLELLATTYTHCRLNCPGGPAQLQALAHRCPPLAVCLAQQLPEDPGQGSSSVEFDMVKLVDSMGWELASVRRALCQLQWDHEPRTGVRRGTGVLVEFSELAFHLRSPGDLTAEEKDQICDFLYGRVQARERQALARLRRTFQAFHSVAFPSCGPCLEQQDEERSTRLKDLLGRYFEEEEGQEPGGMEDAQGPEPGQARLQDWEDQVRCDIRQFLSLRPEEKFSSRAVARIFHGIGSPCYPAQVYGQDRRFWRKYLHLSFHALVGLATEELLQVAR

RECQL4 RQ4-2A = molecular target: T3, RECQL4 RQ4-2A (UniProt O94761 1-1208, S89A;S251A)
T3 sequence: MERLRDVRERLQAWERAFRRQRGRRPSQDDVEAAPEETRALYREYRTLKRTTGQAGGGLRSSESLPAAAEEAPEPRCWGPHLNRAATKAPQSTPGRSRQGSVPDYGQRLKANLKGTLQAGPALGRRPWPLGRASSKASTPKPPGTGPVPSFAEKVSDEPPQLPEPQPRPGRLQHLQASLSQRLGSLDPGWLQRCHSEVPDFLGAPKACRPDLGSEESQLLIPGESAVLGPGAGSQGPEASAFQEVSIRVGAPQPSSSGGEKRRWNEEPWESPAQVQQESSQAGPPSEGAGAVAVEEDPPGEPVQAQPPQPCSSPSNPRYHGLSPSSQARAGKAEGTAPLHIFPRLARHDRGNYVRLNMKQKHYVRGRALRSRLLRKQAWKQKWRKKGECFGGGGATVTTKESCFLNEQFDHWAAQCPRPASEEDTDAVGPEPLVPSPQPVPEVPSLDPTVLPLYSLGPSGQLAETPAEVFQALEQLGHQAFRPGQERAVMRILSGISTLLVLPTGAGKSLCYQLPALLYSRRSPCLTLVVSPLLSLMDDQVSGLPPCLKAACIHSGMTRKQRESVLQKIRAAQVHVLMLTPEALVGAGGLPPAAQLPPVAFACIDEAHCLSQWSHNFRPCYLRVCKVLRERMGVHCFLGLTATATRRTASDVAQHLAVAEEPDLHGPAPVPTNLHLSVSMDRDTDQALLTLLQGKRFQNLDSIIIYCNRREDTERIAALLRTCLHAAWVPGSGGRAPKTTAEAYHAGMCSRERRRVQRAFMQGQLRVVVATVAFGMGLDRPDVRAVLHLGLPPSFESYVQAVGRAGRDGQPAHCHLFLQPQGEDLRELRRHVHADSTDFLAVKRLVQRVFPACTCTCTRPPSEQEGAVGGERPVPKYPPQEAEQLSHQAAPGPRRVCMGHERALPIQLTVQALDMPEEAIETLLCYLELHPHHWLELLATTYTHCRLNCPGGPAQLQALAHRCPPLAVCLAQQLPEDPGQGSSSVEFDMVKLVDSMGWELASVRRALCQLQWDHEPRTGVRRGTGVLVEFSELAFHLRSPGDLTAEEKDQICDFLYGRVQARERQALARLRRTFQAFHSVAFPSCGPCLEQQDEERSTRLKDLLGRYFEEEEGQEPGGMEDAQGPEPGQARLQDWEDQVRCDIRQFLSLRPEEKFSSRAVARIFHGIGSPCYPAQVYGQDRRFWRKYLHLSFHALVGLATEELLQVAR

Measured: binding signal

B1: Mix3/4-19 Y-shaped duplex (dsDNA)
DNA 1: TTTTTTTTTTTTTTTGAGTGTGGTGTACATGCAC
DNA 2: GTGCATGTACACCACACTCTTTTTTTTTTTTTTT
~40 % DNA shifted: RECQL4 RQ4-2D | RECQL4 WT (RQ4Wt) | RECQL4 RQ4-2A
